Values quoted from earlier work, collected in publication PMC8727504.

Molecular target: sMMOH (Methylosinus trichosporium) (UniProt P27353)
Assay: competition

Kd: < 100 nM
Substance: MMOB (from UniProt P27356)
